The target in test [1] is T1, human GFRα3 expressed with a C-terminal myc-myc-hexahistidine tag (human, UniProt O60609 32-374, biotinylated (sites not given) in ELISA format 2 and in the Octet cross-competition; not in SPR).
T1 construct: also called hGFRα3-mmh; hGFRα3-mmH
In words: Octet cross-competition; biotin-hGFRα3-mmH pre-saturated with first antibody H4H2291S. How it is done: (§1) A cross-competition assay was conducted to assess the ability of select antibodies to compete with one another for binding to human GFRα3 using an Octet RED384 biosensor (Fortebio Inc.). The entire experiment was performed at 25° C. with the flow rate of 1000 rpm in Octet HBST buffer (0.01 M HEPES pH7.4, 0.15M NaCl, 3 mM EDTA, 0.05% v/v Surfactant P20, 0.1 mg/mL BSA). To assess whether 2 antibodies were able to compete with one another for binding to their respective epitopes on biotinylated recombinant human GFRα3 expressed with a C-terminal myc-myc-hexahistidine tag (biotin-hGFRα3-mmH; SEQ ID:370), around ˜1.2 nm of biotin-hGFRα3-mmH was first captured onto streptavidin-coated Octet sensor tips (Fortebio Inc, #18-5019) by submerging the tips for 1 minute into a 10 μg/mL solution of biotin-hGFRα3-mmH. The antigen coated sensor tips were then placed into wells containing 25 μg/mL solution of a first anti-GFRα3 monoclonal antibody for 4 minutes to saturate the biotin-hGFRα3-mmH surface. The sensor tips were then subsequently dipped into wells containing 25 μ/mL solution of a second anti-GFRα3 monoclonal antibody. The sensor tips were washed in Octet HBST buffer in between every step of the experiment. The real-time binding response was monitored during the course of the experiment and the binding response at the end of every step was recorded as shown in FIG. 9. The response of mAb-2 binding to biotin-hGFRα3-mmH pre-complexed with the first antibody was compared and competitive/non-competitive behavior of different anti-GFRα3 monoclonal antibodies was determined.

For test [2], the target named is T1, human GFRα3 expressed with a C-terminal …. As to the kind of experiment: Octet cross-competition; biotin-hGFRα3-mmH pre-saturated with first antibody H4H2292S. How it is done: as §1
(In general: In BLI a coated tip is dipped into the sample, and binding shifts an interference pattern.)

For test [3] the target is unchanged. As to the kind of experiment: Octet cross-competition; biotin-hGFRα3-mmH pre-saturated with first antibody H4H2295S. How it is done:
as §1

Test [4] has the same target. In words: Octet cross-competition; biotin-hGFRα3-mmH pre-saturated with first antibody H4H2212N. The protocol: as §1
The target is the same in test [5]. In words: Octet cross-competition; biotin-hGFRα3-mmH pre-saturated with first antibody H4H2350P. The protocol: as §1
The target is the same in test [6]. As to the kind of experiment: Octet cross-competition; biotin-hGFRα3-mmH pre-saturated with first antibody H4H2355S. The protocol: as §1
Test [7] has the same target. In words: Octet cross-competition; biotin-hGFRα3-mmH pre-saturated with first antibody H4H2357S. The protocol:
as §1

The target is the same in test [8]. In words: Octet cross-competition; biotin-hGFRα3-mmH pre-saturated with first antibody H4H2243N2. The protocol:
as §1

Test [9] shares this target. As to the kind of experiment: SPR, Ab captured, 25C. The protocol: Antibodies were tested for binding to human GFRα3 expressed with either a C-terminal myc-myc-hexahistidine tag (hGFRα3-mmh; SEQ ID: 370, a C-terminal hFc tag (hGFRα3-hFc; SEQ ID:371), or a C-terminal mFc tag (hGFRα3-mFc; SEQ ID:372), as well as monkey GFRα3 expressed with a C-terminal myc-myc-hexahistidine tag (MfGFRα3-mmh; SEQ ID:373). Anti-GFRα3 antibodies were captured on either a goat anti-mouse IgG polyclonal antibody (GE Healthcare, #BR-1008-38) or a mouse anti-human IgG monoclonal antibody (GE Healthcare, #BR-1008-39) surface created through direct amine coupling to a Biacore CM5 sensor chip. Kinetic experiments were carried out using HBS-EP (10 mM HEPES, 150 mM NaCl, 3 mM EDTA, 0.05% Surfactant P20, at pH 7.4) or PBS buffer containing 0.05% v/v surfactant P20 as both the running buffer and the sample buffer. Binding to human GFRα3-mmh or monkey GFRα3-mmh was evaluated by injecting several concentrations ranging from 200 to 7.4 nM (3-fold dilutions) across the captured antibody surface. Binding to human GFRα3-mFc or human GFRα3-hFc was evaluated by injecting several concentrations ranging from 100 to 3.7 nM (3-fold dilutions) across the captured antibody surface. Antibody-antigen association was monitored for up to 4 minutes, while dissociation in buffer was monitored for up to 20 minutes. Kinetic association (kₐ) and dissociation (kd) rate constants were determined by processing and fitting the data to a 1:1 binding model using Scrubber 2.0c curve fitting software. Binding dissociation equilibrium constants (KD) and dissociative half-lives (t_{1/2}) were calculated from the kinetic rate constants as: KD (M)=kd/kₐ and t_{1/2} (min)=[ln 2/(60*kd)].
In general terms: Surface plasmon resonance follows binding to a sensor surface in real time, without labels.

Changes are numbered by the printed parent chain. In names and notes the source's numbering stands.

B1: H4H2212N (antibody, human IgG4, V domains shown)
VH: EVQLLESGGGLVQPGGSLRLSCAASGFTFSSYAMSWVRQGPGKGLEWVSGISGSGGSTYNADSVKGRFTISRDNSKNTLYLQMNSLRAEDTAVYYCAKDSGTYWYYFDYWGQGILVTVSS
VL: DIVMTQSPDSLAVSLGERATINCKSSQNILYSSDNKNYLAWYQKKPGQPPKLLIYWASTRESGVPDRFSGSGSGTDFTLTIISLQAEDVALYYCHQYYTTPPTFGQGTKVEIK
notes: human IgG4 Fc (H4H)
As to B1, the “binding response of second antibody (nm)” value in test [1] turned out to be 1.96 nm; in test [2], 1.78 nm; in [3], 1.81 nm; in test [4] it was 0.05 nm; in test [5], 1.57 nm; in [6], 1.95 nm. The “binding response of second antibody (nm)” value in [7] turned out to be 1.9 nm; in [8] it was 0.22 nm.

B2: H4H2291S (antibody, human IgG4, V domains shown)
VH: EVQLVESGGGLVQPGESLRLSCAASGFTFSNYAMSWVRQAPGKGLEWVSVISGSGGSTYYADSVKGRFTMSRDNSKNTLYLQMNSLRAEDTAVYYCAKPPSRAARYFNYGMDVWGQGTTVTVSS
VL: AIRMTQSPSSVSASVGDRVTITCRASQGISSWLAWYQQKPGKAPKLLIYAASSLQSGVPSRFSGSGSGTDFTLTISSLQPEDFATYYCQQANSFPFTFGGGTKVEIK
notes: human IgG4 Fc (H4H)
The Kd is the equilibrium constant for the complex coming apart. As a reminder, the koff is the rate constant with which the complex falls apart. Low readings indicate a long-lived complex, high ones a short-lived complex. In general, kon refers to a measure of how fast the partners come together. A higher kon goes with faster complex formation. In the case of B2, in [9], the Kd turned out to be 0.393 nM. In test [9], this molecule displayed a koff of 0.000164 s⁻¹. Also, in test [9], the kon came out at 418000 M⁻¹ s⁻¹. Moreover, in test [9], the t1/2 turned out to be 70 min. Moreover, the “binding response of second antibody (nm)” value in test [1] was found to be 0.05 nm; in test [2], 2.81 nm; in test [3], 0.2 nm; in test [4] it was 2.69 nm; in test [5], 2.57 nm; in [6], 0.31 nm. For the same molecule, the “binding response of second antibody (nm)” value was 0.18 nm in test [7] and 0.52 nm in test [8].

B3: H4H2364S (antibody, human IgG4, V domains shown)
VH: EVQLVESGGGLEQPGGSLRLSCAASGFTFSSYVMSWVRQVPGKGLEWVSVISGSGGSTYYADSVKGRFTISRDNSKNTLYLQMNSLRAEDTAVYYCAKPSSYSSSNFHYGMDVWGQGTTVTVSS
VL: B2 VL with A1D, R3Q, S9Y, K42R, Q90K, A91T, G100P
notes: human IgG4 Fc (H4H)
As to B3, in test [9], the dissociation constant (Kd) was found to be 0.104 nM, the dissociation rate constant (koff) was determined as 3.67e-05 s⁻¹, the kon turned out to be 353000 M⁻¹ s⁻¹ and the t1/2 was 315 min.

B4: H4H2341S (antibody, human IgG4, V domains shown)
VH: EVQLVESGAEVKKSGSSVKVSCKASGGTFSRYAISWVRQAPGQGLEWMGGIIPLFGTLNYAQKFQGRVTLTTDESTSTAYMELSSLRSEDTAVYYCAVFYYGSGSYRNWFDPWGQGTLVTVSS
VL: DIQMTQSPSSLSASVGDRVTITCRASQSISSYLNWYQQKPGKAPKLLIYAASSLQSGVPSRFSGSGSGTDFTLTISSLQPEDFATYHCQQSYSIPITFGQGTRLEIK
notes: human IgG4 Fc (H4H)
In [9], B4 returned a Kd of 1.68 nM, a koff of 0.000267 s⁻¹, a kon of 159000 M⁻¹ s⁻¹ and a t1/2 of 43 min.

B5: H4H2236N3 (antibody, human IgG4, V domains shown)
VH: EVQLLESGGNLVQPGGSLRLSCAASGFTFSSYAMTWVRQAPGKGLEWVSTISGSGTSTYYADSVKGRFTISRDNSRDTVFLQMNSLRAEDTAVYYCSKPSALRFLHWLAMDVWGQGTLVTVSS
VL: DIQMTQSPSSLSAFVGDRVTITCRASQDIRNYLDWFQQKPGKAPKSLIYAASNLQSGVPSRFGGSGSGTDFTLTINSLQPEDFVTYYCQQYNSYPPTFGGGTKVEIK
notes: human IgG4 Fc (H4H)
In the case of B5, in test [9], the dissociation constant Kd came out at 0.253 nM. In addition, the koff in test [9] turned out to be 0.000233 s⁻¹. In test [9], this molecule gave an on-rate constant (kon) of 922000 M⁻¹ s⁻¹. Moreover, the t1/2 in test [9] was 50 min. For the same molecule, the “binding response of second antibody (nm)” value in test [1] amounted to 0.01 nm; in [2] it was 2.24 nm; in [3], 0.01 nm; in test [4], 2.14 nm; in test [5] it was 1.98 nm; in test [6] it was 0.18 nm. Moreover, the entries for the “binding response of second antibody (nm)” value in test [7] and in [8] were 0.04 nm and 0.3 nm, respectively.

B6: H4H2345S (antibody, human IgG4, V domains shown)
VH: EVQLVESGGGLVRPGRSLRLSCAASGFTFDNYAMHWVRQVPGKGLEWVSGITWNSVSLGYADSVKGRFTISRDNAQNSLYLQMNSLRTVDTALYYCAKDRWGGSYYFDFWGQGTLVTVSS
VL: DIVMTQSPSSLSASVGDRVTITCRASQGISNYLAWYQQKPGKVPKLLIYSASTLQSGVPSRFSGSGSGTDFTLTISNLQPEDFATFFCQKYNSAPTFGGGTKVEIK
notes: human IgG4 Fc (H4H)
In [9], B6 came in with a Kd of 29.7 nM, a koff of 0.00323 s⁻¹, a kon of 109000 M⁻¹ s⁻¹ and a t1/2 of 4 min.

B7: H4H2344S (antibody, human IgG4, V domains shown)
VH: EVQLVESGGGVVQPGRSLRLSCAASGFSFSDYVMHWVRQAPGKGLEWVASIWFDGSNEFYADSVKGRFTISRDNSKNTLFLQMNSLRAEDTAVYYCAKKGVLVATSAFDIWGQGTMVTVSS
VL: DIQMTQSPSSLSASVGDRVTITCRASQSINNYLNWYHQKPGKAPKLLIYAASSLQSGVPSRFSGSGSGTDYTLTISSLQPEDFGNYYCQQSYRTSMYTFGQGTKVEIK
notes: human IgG4 Fc (H4H)
Turning to B7, in test [9], binding was characterised by a dissociation constant (Kd) of 1.31 nM, the koff turned out to be 0.00024 s⁻¹, the kon was 183000 M⁻¹ s⁻¹ and the t1/2 was determined as 48 min.

B8: H4H2346S (antibody, human IgG4, V domains shown)
VH: B7 VH with E1Q
VL: B7 VL with D1E, Q3V
notes: human IgG4 Fc (H4H)
In [9], B8 came in with a Kd of 0.43 nM, an off-rate constant (koff) of 7.99e-05 s⁻¹, an on-rate (kon) of 186000 M⁻¹ s⁻¹ and a t1/2 of 145 min.

B9: H4H2293P (antibody, human IgG4, V domains shown)
VH: B7 VH with E1Q, F59L, D109H
VL: B7 VL with D1A, S28N, K45N, R93S, V105L
notes: human IgG4 Fc (H4H)
In test [9], B9 displayed a Kd of 0.219 nM, a koff of 0.000127 s⁻¹, an on-rate (kon) of 581000 M⁻¹ s⁻¹ and a t1/2 of 91 min.

B10: H4H2354S (antibody, human IgG4, V domains shown)
VH: B7 VH with E1Q
VL: B7 VL with M4L
notes: human IgG4 Fc (H4H); also called H4H2354S-1
As for B10, in test [9], the Kd is 0.548 nM, the koff amounted to 0.00011 s⁻¹, the on-rate (kon) stood at 200000 M⁻¹ s⁻¹ and the t1/2 worked out at 105 min.

The values above are taken from US20140056903A1 (Regeneron, published 2014).
